Experimental data taken from patent US20240261333A1, “NOVEL TARGETS FOR ENHANCING ANTI-TUMOR IMMUNITY” (THE BROAD INSTITUTE, INC., priority 2021, published 2024).

Experiments:
EEF2 (human) = EEF2 (human) (UniProt P13639); experiment: IgG control IP from lysate of C-FLAG B3GNT2 cells, mass spectrometry
RPL34 (human) = RPL34 (human) (UniProt P49207); experiment: as above
ERP29 (human) = ERP29 (human) (UniProt P30040); experiment: as above
PSMB4 (human) = PSMB4 (human) (UniProt P28070); experiment: as above
H1FX (human) = H1FX (human) (UniProt Q92522); experiment: as above
TRAFD1 (human) = TRAFD1 (human) (UniProt O14545); experiment: as above
EIF4G1 = EIF4G1 (UniProt Q04637); experiment: co-IP, IgG control, C-FLAG B3GNT2 cell lysate, mass spectrometry
MTCH2 = MTCH2 (UniProt Q9Y6C9); experiment: as above
RPS2 = RPS2 (UniProt P15880); experiment: as above
RPL3 = RPL3 (UniProt P39023); experiment: as above
TNKS1BP1 = TNKS1BP1 (UniProt Q9C0C2); experiment: as above
SSRP1 = SSRP1 (UniProt Q08945); experiment: as above
Sequence of SSRP1 (Q08945 2-709 limits assumed): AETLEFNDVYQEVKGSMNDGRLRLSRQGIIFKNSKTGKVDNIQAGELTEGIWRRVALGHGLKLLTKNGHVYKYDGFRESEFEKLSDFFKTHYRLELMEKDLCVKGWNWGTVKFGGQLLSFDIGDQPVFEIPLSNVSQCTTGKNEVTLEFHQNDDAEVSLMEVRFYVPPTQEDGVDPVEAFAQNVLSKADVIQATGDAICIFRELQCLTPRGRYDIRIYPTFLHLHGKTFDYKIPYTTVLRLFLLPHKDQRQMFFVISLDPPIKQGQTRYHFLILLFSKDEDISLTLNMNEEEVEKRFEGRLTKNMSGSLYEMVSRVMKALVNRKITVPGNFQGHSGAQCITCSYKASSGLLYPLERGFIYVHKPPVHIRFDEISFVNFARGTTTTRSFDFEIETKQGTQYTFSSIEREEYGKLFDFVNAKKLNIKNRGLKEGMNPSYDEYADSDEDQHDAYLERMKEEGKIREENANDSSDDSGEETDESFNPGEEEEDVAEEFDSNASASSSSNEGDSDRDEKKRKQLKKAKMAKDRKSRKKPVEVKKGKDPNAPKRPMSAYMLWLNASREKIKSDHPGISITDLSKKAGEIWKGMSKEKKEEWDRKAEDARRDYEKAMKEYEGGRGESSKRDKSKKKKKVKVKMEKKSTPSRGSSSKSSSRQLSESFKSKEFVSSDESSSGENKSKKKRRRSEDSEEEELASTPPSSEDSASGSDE

HIST1H1E = HIST1H1E (UniProt P10412); experiment: as above
Sequence of HIST1H1E (P10412 2-219 limits assumed): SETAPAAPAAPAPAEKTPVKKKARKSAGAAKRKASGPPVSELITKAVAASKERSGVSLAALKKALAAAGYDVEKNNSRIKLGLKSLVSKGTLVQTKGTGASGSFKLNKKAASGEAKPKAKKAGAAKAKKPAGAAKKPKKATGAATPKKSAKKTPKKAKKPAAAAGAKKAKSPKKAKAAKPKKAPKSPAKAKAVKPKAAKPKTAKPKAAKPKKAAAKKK

RPL19 = RPL19 (UniProt P84098); experiment: as above
TXN = TXN (UniProt P10599); experiment: as above
Sequence of TXN (P10599 2-105 limits assumed): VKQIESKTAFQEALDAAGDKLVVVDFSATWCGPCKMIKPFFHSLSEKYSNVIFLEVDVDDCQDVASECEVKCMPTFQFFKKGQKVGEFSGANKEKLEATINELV

CDSN = CDSN (UniProt Q15517); experiment: as above
RPS19 = RPS19 (UniProt P39019); experiment: as above
POF1B = POF1B (UniProt Q8WVV4); experiment: as above
Sequence of POF1B (Q8WVV4 other isoform, or with tags, fused parts or gaps limits assumed): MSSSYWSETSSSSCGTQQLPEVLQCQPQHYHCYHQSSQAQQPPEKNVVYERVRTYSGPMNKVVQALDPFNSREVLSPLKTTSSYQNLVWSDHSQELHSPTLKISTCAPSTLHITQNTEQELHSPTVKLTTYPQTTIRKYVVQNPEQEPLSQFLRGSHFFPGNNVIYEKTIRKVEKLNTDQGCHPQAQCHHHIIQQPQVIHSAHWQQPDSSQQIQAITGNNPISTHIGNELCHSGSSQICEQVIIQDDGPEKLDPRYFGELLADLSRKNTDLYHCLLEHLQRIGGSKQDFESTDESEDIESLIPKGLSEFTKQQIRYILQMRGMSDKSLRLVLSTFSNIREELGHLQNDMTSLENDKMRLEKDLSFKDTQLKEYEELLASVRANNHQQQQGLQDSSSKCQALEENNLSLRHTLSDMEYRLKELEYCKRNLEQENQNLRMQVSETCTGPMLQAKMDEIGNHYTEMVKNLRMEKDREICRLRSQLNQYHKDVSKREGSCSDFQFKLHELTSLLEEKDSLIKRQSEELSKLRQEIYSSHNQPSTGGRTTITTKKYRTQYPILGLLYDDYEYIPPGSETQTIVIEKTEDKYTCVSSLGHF

SRSF1 = SRSF1 (UniProt Q07955); experiment: as above
NCCRP1 = NCCRP1 (UniProt Q6ZVX7); experiment: as above
Sequence of NCCRP1 (Q6ZVX7 whole entry): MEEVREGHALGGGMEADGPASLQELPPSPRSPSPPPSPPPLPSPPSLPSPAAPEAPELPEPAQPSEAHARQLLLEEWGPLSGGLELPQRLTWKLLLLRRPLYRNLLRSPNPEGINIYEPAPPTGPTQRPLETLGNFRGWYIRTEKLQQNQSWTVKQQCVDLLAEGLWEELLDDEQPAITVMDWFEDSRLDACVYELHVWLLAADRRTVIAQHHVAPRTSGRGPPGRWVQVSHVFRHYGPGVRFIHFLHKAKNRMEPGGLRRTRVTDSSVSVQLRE

DNAJA2 = DNAJA2 (UniProt O60884); experiment: as above
TAGLN = TAGLN (UniProt Q01995); experiment: as above
Sequence of TAGLN (Q01995 2-201 limits assumed): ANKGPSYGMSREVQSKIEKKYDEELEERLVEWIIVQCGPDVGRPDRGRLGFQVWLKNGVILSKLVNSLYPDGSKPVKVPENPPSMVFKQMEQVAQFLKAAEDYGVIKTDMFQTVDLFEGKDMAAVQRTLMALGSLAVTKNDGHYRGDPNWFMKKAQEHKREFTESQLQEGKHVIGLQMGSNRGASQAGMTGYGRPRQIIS

EMD = EMD (UniProt P50402); experiment: as above
Sequence of EMD (P50402 whole entry): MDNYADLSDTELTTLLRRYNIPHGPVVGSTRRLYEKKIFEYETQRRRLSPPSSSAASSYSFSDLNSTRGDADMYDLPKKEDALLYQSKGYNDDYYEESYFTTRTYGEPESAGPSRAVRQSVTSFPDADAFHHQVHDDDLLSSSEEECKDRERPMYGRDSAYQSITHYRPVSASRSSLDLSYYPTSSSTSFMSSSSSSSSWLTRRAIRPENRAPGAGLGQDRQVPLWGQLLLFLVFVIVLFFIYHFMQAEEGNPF

ITGB3 = ITGB3 (UniProt P05106); experiment: as above
HSPB1 = HSPB1 (UniProt P04792); experiment: as above
PBXIP1 = PBXIP1 (UniProt Q96AQ6); experiment: as above
Sequence of PBXIP1 (Q96AQ6 30-731 limits assumed): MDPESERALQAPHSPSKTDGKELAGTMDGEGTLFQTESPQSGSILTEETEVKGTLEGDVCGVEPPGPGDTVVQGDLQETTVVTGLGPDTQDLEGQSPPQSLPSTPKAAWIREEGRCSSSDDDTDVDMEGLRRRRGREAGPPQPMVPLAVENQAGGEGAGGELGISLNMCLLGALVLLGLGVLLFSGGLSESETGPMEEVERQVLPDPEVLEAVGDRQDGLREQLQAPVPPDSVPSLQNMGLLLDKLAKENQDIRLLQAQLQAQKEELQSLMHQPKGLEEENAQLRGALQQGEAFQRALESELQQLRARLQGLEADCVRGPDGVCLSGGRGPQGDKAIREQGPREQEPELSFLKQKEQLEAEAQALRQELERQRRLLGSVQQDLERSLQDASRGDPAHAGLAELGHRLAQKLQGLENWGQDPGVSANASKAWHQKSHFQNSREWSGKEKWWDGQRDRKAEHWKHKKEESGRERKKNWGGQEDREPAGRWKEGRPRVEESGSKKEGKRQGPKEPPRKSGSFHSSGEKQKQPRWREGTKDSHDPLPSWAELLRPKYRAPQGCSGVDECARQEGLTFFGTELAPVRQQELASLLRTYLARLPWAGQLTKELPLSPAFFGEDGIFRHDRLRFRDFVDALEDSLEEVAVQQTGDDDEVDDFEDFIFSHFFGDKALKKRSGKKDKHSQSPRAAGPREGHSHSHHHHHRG

DEFA3 = DEFA3 (UniProt P59666); experiment: as above
Sequence of DEFA3 (P59666 65-94 limits assumed): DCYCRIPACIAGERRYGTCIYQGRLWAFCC

RPS16 = RPS16 (UniProt P62249); experiment: as above
SRSF3 = SRSF3 (UniProt P84103); experiment: as above
RPS23 = RPS23 (UniProt P62266); experiment: as above
RPL37A = RPL37A (UniProt P61513); experiment: as above
RPL22 = RPL22 (UniProt P35268); experiment: as above
RPS8 = RPS8 (UniProt P62241); experiment: as above
PSMA7 = PSMA7 (UniProt O14818); experiment: as above
CFL1 = CFL1 (UniProt P23528); experiment: as above
Sequence of CFL1 (P23528 2-166 limits assumed): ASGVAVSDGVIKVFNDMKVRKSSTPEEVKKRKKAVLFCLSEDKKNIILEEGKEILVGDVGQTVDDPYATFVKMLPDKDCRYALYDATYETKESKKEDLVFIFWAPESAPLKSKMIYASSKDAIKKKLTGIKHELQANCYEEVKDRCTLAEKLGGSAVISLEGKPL

LIMA1 = LIMA1 (UniProt Q9UHB6); experiment: as above
Sequence of LIMA1 (Q9UHB6 other isoform, or with tags, fused parts or gaps limits assumed): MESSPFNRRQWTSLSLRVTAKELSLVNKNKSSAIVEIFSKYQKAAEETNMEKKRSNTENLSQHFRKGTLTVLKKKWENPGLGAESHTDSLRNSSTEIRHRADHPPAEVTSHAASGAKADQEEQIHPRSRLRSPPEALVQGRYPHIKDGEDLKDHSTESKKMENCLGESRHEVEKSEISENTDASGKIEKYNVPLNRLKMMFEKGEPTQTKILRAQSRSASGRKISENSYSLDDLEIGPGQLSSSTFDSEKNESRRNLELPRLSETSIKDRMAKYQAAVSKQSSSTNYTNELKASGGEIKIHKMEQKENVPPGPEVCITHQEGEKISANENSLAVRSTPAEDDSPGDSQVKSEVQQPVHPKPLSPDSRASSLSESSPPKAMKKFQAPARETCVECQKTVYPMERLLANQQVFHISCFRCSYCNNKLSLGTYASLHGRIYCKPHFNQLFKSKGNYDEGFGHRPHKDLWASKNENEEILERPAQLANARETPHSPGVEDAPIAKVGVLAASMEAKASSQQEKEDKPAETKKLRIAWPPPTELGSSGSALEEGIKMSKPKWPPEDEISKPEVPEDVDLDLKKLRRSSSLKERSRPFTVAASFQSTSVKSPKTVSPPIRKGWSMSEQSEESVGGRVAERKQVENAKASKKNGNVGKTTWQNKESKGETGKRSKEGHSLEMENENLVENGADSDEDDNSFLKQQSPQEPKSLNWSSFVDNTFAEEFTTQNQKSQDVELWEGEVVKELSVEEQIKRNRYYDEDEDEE

HNRNPU = HNRNPU (UniProt Q00839); experiment: as above
Sequence of HNRNPU (Q00839 2-825 limits assumed): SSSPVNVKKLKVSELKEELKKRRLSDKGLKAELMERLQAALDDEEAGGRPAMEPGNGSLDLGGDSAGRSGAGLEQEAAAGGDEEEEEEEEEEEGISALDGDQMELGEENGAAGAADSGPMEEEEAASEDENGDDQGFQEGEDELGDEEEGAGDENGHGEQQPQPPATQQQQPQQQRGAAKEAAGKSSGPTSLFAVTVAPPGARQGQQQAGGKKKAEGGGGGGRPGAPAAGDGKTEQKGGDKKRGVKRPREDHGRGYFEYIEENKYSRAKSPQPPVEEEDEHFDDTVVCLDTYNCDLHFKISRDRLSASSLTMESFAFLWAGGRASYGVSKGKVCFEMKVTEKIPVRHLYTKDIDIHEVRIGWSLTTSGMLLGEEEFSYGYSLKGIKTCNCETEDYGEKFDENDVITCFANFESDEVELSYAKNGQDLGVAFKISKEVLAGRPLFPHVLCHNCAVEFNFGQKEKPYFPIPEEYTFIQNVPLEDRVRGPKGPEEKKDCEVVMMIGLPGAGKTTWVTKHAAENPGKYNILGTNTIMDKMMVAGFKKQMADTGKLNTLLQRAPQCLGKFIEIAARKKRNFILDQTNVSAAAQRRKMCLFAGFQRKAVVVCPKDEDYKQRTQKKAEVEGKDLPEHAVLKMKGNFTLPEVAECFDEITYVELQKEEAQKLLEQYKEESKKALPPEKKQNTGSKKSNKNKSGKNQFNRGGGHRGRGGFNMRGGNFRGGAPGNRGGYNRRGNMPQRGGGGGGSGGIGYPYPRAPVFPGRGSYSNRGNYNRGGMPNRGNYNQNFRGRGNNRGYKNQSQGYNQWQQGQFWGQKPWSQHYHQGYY

RPS13 = RPS13 (UniProt P62277); experiment: as above
RPS18 = RPS18 (UniProt P62269); experiment: as above
RPL27A = RPL27A (UniProt P46776); experiment: as above

Substance: IgG control (Millipore Sigma 12-371) (antibody)
- co-IP mass spectrometry count (EEF2 (human)): 0
- co-IP mass spectrometry count (RPL34 (human)): 0
- co-IP mass spectrometry count (ERP29 (human)): 0
- co-IP mass spectrometry count (PSMB4 (human)): 0
- co-IP mass spectrometry count (H1FX (human)): 0
- co-IP mass spectrometry count (TRAFD1 (human)): 0
- co-IP mass spectrometry count (EIF4G1): 2
- co-IP mass spectrometry count (MTCH2): 0
- co-IP mass spectrometry count (RPS2): 12
- co-IP mass spectrometry count (RPL3): 5
- co-IP mass spectrometry count (TNKS1BP1): 2
- co-IP mass spectrometry count (SSRP1): 0
- co-IP mass spectrometry count (HIST1H1E): 0
- co-IP mass spectrometry count (RPL19): 2
- co-IP mass spectrometry count (TXN): 0
- co-IP mass spectrometry count (CDSN): 0
- co-IP mass spectrometry count (RPS19): 3
- co-IP mass spectrometry count (POF1B): 0
- co-IP mass spectrometry count (SRSF1): 3
- co-IP mass spectrometry count (NCCRP1): 0
- co-IP mass spectrometry count (DNAJA2): 0
- co-IP mass spectrometry count (TAGLN): 0
- co-IP mass spectrometry count (EMD): 2
- co-IP mass spectrometry count (ITGB3): 0
- co-IP mass spectrometry count (HSPB1): 0
- co-IP mass spectrometry count (PBXIP1): 0
- co-IP mass spectrometry count (DEFA3): 5
- co-IP mass spectrometry count (RPS16): 8
- co-IP mass spectrometry count (SRSF3): 3
- co-IP mass spectrometry count (RPS23): 9
- co-IP mass spectrometry count (RPL37A): 3
- co-IP mass spectrometry count (RPL22): 0
- co-IP mass spectrometry count (RPS8): 6
- co-IP mass spectrometry count (PSMA7): 0
- co-IP mass spectrometry count (CFL1): 3
- co-IP mass spectrometry count (LIMA1): 0
- co-IP mass spectrometry count (HNRNPU): 0
- co-IP mass spectrometry count (RPS13): 2
- co-IP mass spectrometry count (RPS18): 9
- co-IP mass spectrometry count (RPL27A): 0
